From patent US11103459B2, “Method of drug formulation based on increasing the affinity of active agents for crystalline microparticle surfaces” (MannKind Corporation, priority 2005, dated 2021)
Read-outs that look alike come from different tables or passages of the source. Where no end group is shown, it is not given here.

Experiments:
[1] = Active agent/FDKP microparticle adsorption studies (loading curves, HPLC); format: physicochemical; conditions: for binding of GLP-1 onto the FDKP microparticle surface: 100 mM TMAO
Protocol: Aqueous samples at varying pH and at 20° C. (unless otherwise noted) were analyzed.
The association of active agent with diketopiperazine (DKP) particles in suspension was evaluated by conducting adsorption studies.
(§1) Unbound active agent in the supernatant was filtered off the suspension. […] The amount of active agent in both the supernatant and reconstituted fractions was quantitated by HPLC. A series of experiments were conducted in which conditions employed included use of additives such as salts, osmolytes, chaotropes and kosmotropes, and alcohols.
The concentration of the chaotrope or kosmotrope in the samples was held constant at 100 mM and the pH varied from 2.0 to 5.0. Chaotropes or kosmotropes were selected from the following: NaSCN, CsCl, Na2SO4, (CH3)3N—HCl, […], Na Citrate, and NaClO4. The control indicates no chaotrope or kosmotrope were added.
The concentration of the osmolyte (stabilizer) in the samples was held constant at 100 mM and the pH varied from about 2.0 to about 5.0. The osmolytes were selected from hexylene-glycol (Hex-Gly), trehalose, glycine, PEG, TMAO, mannitol and proline; the control indicates no osmolyte.
In assessing the effect of modifiers on the active agent that allows for adsorption to the microparticle surface by a hydrophobic mechanism, the effect of alcohols were examined. […] The effect of each alcohol was observed over a pH range of 2.0 to 5.0. The alcohols used were trifluoroethanol (TFE) and hexafluoroisopropanol (HFIP). Each alcohol was evaluated at varying concentrations which include 5%, 10%, 15%, or 20% v/v.
(§2) The amount of active agent detected in reconstituted microparticle-free control samples as a function of pH and NaCl concentration was assessed. The pH was controlled with a 20 mM potassium phosphate/20 mM potassium acetate mixture.

[2] = Active agent detected in reconstituted microparticle-free control samples (precipitation, HPLC); format: physicochemical
Protocol: as §1
Similar observations were disclosed in U.S. Provisional Application Ser. No. 60/744,882.
The effect of TFE was less pronounced, and at the lower pHs tested was detrimental. […] The mass ratios in FIGS. 3C-D reflect both adsorbed and precipitated active agent although precipitation is an increasingly minor component as the pH decreased toward 3.0.
as §2

[3] = in the presence of NaSCN, NaClO4, Na2SO4, NaNO3 and Na citrate; cited from earlier work

glucagon-like peptide 1 [GLP-1]
affinity for adsorption of GLP-1 onto FDKP particle surface ([1]; 100 mM PEG and proline, pH 2.0 to 4.0): improved the affinity | binding of GLP-1 onto the FDKP microparticle surface ([1]; pH 2.0): more effective than PEG or proline | binding of GLP-1 onto the FDKP microparticle surface ([1]; pH 3.0 and above): modestly detrimental | affinity of GLP-1 for the FDKP microparticles ([1]; 100 mM chaotropes and kosmotropes, pH 2.0-4.0, greater effect at lower pH): improved affinity | affinity of GLP-1 for the microparticle surface ([1]; HFIP and TFE at 5% and 10%, pH 2.0-5.0): improved affinity | binding of GLP-1 to FDKP particles ([1]; NaCl, pH 4.0 and above): reduction in binding | effect of TFE on GLP-1 affinity for the microparticle surface ([1]; TFE, lower pHs tested): detrimental | binding (adsorption) of GLP-1 to FDKP particles ([1]; all NaCl concentrations tested, pH about 2.0 to about 3.5): enhanced binding | GLP-1 peptide detected in reconstituted microparticle-free control samples ([2]; 10% HFIP and TFE, pH 4.0): 0.13 to 0.19 mg/mL | GLP-1 peptide detected in reconstituted microparticle-free control samples ([2]; 10% HFIP or TFE, pH 2.0): no GLP-1 was detected | GLP-1 peptide detected in reconstituted microparticle-free control samples [3]: 0.02 to 0.04 mg/mL

insulin [reference compound]
affinity of insulin for the FDKP microparticle surface vs control ([1]; 100 mM chaotropes and kosmotropes, pH 3.0, […] insulin, 5 mg/mL FDKP): improved the affinity | affinity of insulin for the FDKP microparticle surface vs control ([1]; 100 mM chaotropes and kosmotropes, pH 4): this effect was not observed | adsorption of insulin to the FDKP microparticle surface vs control ([1]; 100 mM chaotropes and kosmotropes, pH 5.0 (insulin precipitated)): interfered with the adsorption | affinity of insulin for the FDKP particle surface ([1]; 100 mM osmolytes (PEG, glycine, trehalose, mannitol, Hex-Gly), pH 3.0 to 5.0): significantly improved affinity | binding (adsorption) of insulin onto FDKP particles ([1]; 100-500 mM NaCl, pH about 2.5 to about 3.5): increased binding | adsorption of insulin to the FDKP particle ([1]; all NaCl concentrations tested, pH about 4.0 to about 5.0): reduction in the adsorption

ghrelin (GSSFLSPEHQRVQQRKESKKPPAKLQPR; ends and bridges not checked; UniProt Q9UBU3 24-51, looked up)
affinity of ghrelin for the microparticle surface vs control ([1]; 100 mM mannitol, PEG, glycine, Hex-Gly, trehalose, pH about 4.0 to 5.0): greater affinity | affinity of ghrelin for the microparticle surface (mass ratio of ghrelin to FDKP particles) ([1]; HFIP and TFE at 5%, 10%, 15%, 20% v/v, pH 2.0-4.0): greatly improved affinity

parathyroid hormone [PTH]
binding of PTH to the FDKP particles ([1]; 250 to 1000 mM NaCl, pH about 2.0 to about 3.5): enhanced binding | binding of PTH to the microparticle ([1]; in the presence of salt, pH about 3.5 to about 5.0): decreased | affinity of PTH for the FDKP microparticle surface ([1]; strong chaotropes NaSCN and NaClO4, pH 4.0 to about 4.5): greater
